Data as given in patent publication US20200031915A1, “IMMUNOGLOBULIN-BINDING PEPTIDE WITH IMPROVED STABILITY” (KANEKA CORPORATION, priority 2017, published 2020).

Biological target: T1, Fab fragment of humanized monoclonal IgG (Infliximab) (Homo sapiens, UniProt P01834+P01857)
T1 construct: fragmented into a Fab fragment and an Fc fragment by using papain, and the Fc fragment and Fab fragment were purified; purchased Mitsubishi Tanabe Pharma Corporation Remicade (Infliximab)
Assay: Residual Fab-binding activity of GB1#-N08K after alkali treatment (Biacore SPR)
Conditions: 15 mM NaOH final (0.1 mL of 45 mM NaOH added to 0.2 mL of 20 μM peptide), 25° C., 2 hours; ratio to before treatment as 100%; N=4

T1 sequence (P01857 with tags, fused parts or gaps limits assumed, other chains not shown): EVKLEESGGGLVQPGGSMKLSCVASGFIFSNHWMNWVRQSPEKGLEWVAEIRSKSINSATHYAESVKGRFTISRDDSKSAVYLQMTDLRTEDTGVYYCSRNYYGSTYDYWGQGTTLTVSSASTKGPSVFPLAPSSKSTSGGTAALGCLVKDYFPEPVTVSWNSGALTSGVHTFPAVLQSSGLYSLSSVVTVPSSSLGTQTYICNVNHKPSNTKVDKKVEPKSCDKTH

Substance	residual binding activity to Fab after alkali treatment [%]
GB1#-N08A: Comparative example: GB1#-Cont (SEQ ID NO: 4) with mutation N08A; amino acid SEQ ID NO: 41 (TTYKLILAGKTLTGYTTTIAVDAATAEKVLKQFANDNGVDGEWTYDDATKTFTVTE; Altered SpG)	68
GB1#-N08K: GB1#-Cont (SEQ ID NO: 4), strong binding ability to Fab, with mutation N08K introduced; amino acid SEQ ID NO: 32 (TTYKLILKGKTLTGYTTTIAVDAATAEKVLKQFANDNGVDGEWTYDDATKTFTVTE; oligo DNA)	80
